According to the DeepSol protein solubility set:

assay: soluble on expression in E. coli; label from the status in PepcDB or PDB records

| Sequence | soluble on expression in E. coli |
| --- | --- |
| MGSDKIHHHHHHMMDWLYRYPPLYPGILLKRYKRFFADVQLTSGEIVTAHCPNTGPMTGVSTPQSAVQLSKSDNLNRKLAYTLELIQVHDNEPTWVGINTFLPNRVVKLALAKYLFPELGEYSQIKGEVVYGLDKKSRVDFFLTGSDEERPIYLEVKNTTLSEGRLALFPDTETTRGQKHLRELMALLPLTRAVMLYFINRGDCTEFSPGDRTDPVYGKLLRDAIALGLEVLPCRFDISPEGIRYLGLAKLKI | not soluble |
| MFKVLAEAFASARLRLGAILFSPQSLAFLPAFCLGLYWYGGETALMITALVFPVFFLVARAKLAETVTTSRQDSVLGVMQPDGFQDIVAARFREARAGGLISTVFQIEIDDHTSLVERHGQRAAEVISTTSADRIAAVLRDRDAVTHLDTFKYAVCLEPVRQMDLELCIQLAGRIQAALEEPIALDATAVCITSSVGFCQQTKVLSRSGEAWLAAAGHALREAHLNGPGAIRAYSEKMQQKSEIRAELREEVAQALEKGQIKPWFQPQISTDTGLVTGFEALARWNHPKRGMVPPGAFLTAIEQAGMLEKLAEVMIFHAFTALKAWDSAGVCVPQVGVNFAGPELSNPKLVDKIIWELDRFDLAPERLAVEVLETVVANSPDDTITRNINGLSKLGCRIDLDDFGTGHASISSIRRFSVSRIKIDRSFVIKADRDPEQQRMISAILTMAERLEVETLAEGVESVGEHALLAQLGCDHVQGFGIGKPMPFDQTLDWIASHNAKLQATPQILPNKLRLEHHHHHH | soluble |
| MPSAMNERTVAELEKLLRYIAANLKQRGREILTNYPITPPQFVALQWLLEEGDLTVGELSNKMYLACSTTTDLVDRMERNGLVARVRDEHDRRVVRIRLLEKGERIIEEVIEKRQRDLANVLESFSDEEIVVFERCLRKLHQEMTKE | soluble |
| MVTSPPTSSPSQRSYSPQDWLRGYQSQPQEWDYWVEDVEGSIPPDLQGTLYRNGPGLLEIGDRPLKHPFDGDGMVTAFKFPGDGRVHFQSKFVRTQGYVEEQKAGKMIYRGVFGSQPAGGWLKTIFDLRLKNIANTNITYWGDRLLALWEGGQPHRLEPSNLATIGLDDLGGILAEGQPLSAHPRIDPASTFDGGQPCYVTFSIKSSLSSTLTLLELDPQGKLLRQKTETFPGFAFIHDFAITPHYAIFLQNNVTLNGLPYLFGLRGAGECVQFHPDKPAQIILVPRDGGEIKRIPVQAGFVFHHANAFEENGKIILDSICYNSLPQVDTDGDFRSTNFDNLDPGQLWRFTIDPAAATVEKQLMVSRCCEFPVVHPQQVGRPYRYVYMGAAHHSTGNAPLQAILKVDLESGTETLRSFAPHGFAGEPIFVPRPGGVAEDDGWLLCLIYKADLHRSELVILDAQDITAPAIATLKLKHHIPYPLHGSWAQT | soluble |
| MAKIILRHLIEIPVRYQEEFEARGLEDCRLDHALYALPGPTIVDLRKTRAAQSPPVDSAAETPPREGKSHFQILLDVVQFLPEDIIIQTFEGWLLIKAQHGTRMDEHGFISRSFTRQYKLPDGVEIKDLSAVLCHDGILVVEVKDPVGTK | soluble |
| MISRVAQMYFSEHKRQAEIAQHLNLSQATVSRMLKRAEAEGIVRTSIIPPPGTYSDLEAQLRERFDLPEAIVVDCSEDRDGAIMARIGEAAAHFLEVTLSQNEIIGVSSWSQTIFKMVENIHPLKGAKARYIVQTLGGMGDPSVQTHATQITTRLARLTEAEPKLLPVPGVATSREAKLLMLADPFVRETIDLFGSITLAIVGVGAVEPSELLARSGNIFSTKELADLAQAGAVGDISLRFFDKDGKPVKTPLDDRVIGLPLENLSNVDRVIALAGGLKKTEAIAGALRTGVIDVLVTDKFTAERLVGQET | not soluble |
| MVVKFTKSEALHKEALEHIVGGVNSPSRSFKAVGGGAPIAMERGKGAYFWDVDGNKYIDYLAAYGPIITGHAHPHITKAITTAAENGVLYGTPTALEVKFAKMLKEAMPALDKVRFVNSGTEAVMTTIRVARAYTGRTKIMKFAGCYHGHSDLVLVAAGSGPSTLGTPDSAGVPQSIAQEVITVPFNNVETLKEALDKWGHEVAAILVEPIVGNFGIVEPKPGFLEKVNELVHEAGALVIYDEVITAFRFMYGGAQDLLGVTPDLTALGKVIGGGLPIGAYGGKKEIMEQVAPLGPAYQAGTMAGNPASMASGIACLEVLQQEGLYEKLDELGATLEKGILEQAAKHNIDITLNRLKGALTVYFTTNTIEDYDAAQDTDGEMFGKFFKLMLQEGVNLAPSKYEAWFLTTEHTKEDIEYTIEAVGRAFAALADNK | soluble |
| GSHMSKSDVFHLGLTKNDLQGATLAIVPGDPDRVEKIAALMDKPVKLASHREFTTWRAELDGKPVIVCSTGIGGPSTSIAVEELAQLGIRTFLRIGTTGAIQPHINVGDVLVTTASVRLDGASLHFAPLEFPAVADFECTTALVEAAKSIGATTHVGVTASSDTFYPGQERYDTYSGRVVRHFKGSMEEWQAMGVMNYEMESATLLTMCASQGLRAGMVAGVIVNRTQQEIPNAETMKQTESHAVKIVVEAARRLL | soluble |
| MAVLGRKSDRAVFDDGPVPRYEAVKQFIRSRIESGEWPPHHRVPSENDIVADLGVSRMTANRALRELASEGAITRVQGVGSFVAAHKGSTALLEVRNIADEIRERGHRHTSRITLLEEEQASTEVAEALGLAAKARVFHSIIVHAEDDVPIQIEDRFVNPAICPNYLEQDFTSMTPNVYLTLVAPITRTEQIVEAVLPKPWECKLLSIGRGEPCLMIRRRTWSEAANVTVAWLTYPGTRYRLEGVSQ | not soluble |
| MEYPMSYTFRATFPALFLSLMLPCALPALAADPAPAKDAAAQAPVERAPLLSRSQEDAIALERQLPREDQQQLQAGDESFLALWKPANTDAPQGAVIILPGDAESPDWPDTVGPLRRKFPDVGWSSLSITLPDAQDNTLLPREPDAAAGDANAAKPEETPKDAAAKAPDPAAEAEALAAVATAKAAADEERNKAQAELIFARIESAISFAQQNKARNIVLLGHSSGAYWAARFLNERPSPAVQKLVMVAAREPVDAAPSLLAMVPGLKIKTADFIYKNPEDQAAKARLQASKRAKGPGFTQIGLINIVGNEETEQEQMFRRIRGWVEAKEEK | not soluble |
| TKIAMANFKSAMPIFKSHAYLKELEKTLKPQHFDRVFVFPDFFGLLPNSFLHFTLGVQNAYPRDCGAFTGEITSKHLEELKIHTLLIGHSERRTLLKESPSFLKEKFDFFKSKNFKIVYCIGEELTTREKGFKAVKEFLSEQLENIDLNYPNLVVAYEPIWAIGTKKSASLEDIYLTHGFLKQILNQKTPLLYGGSVNTQNAKEILGIDSVDGLLIGSASWELENFKTIISFL | soluble |
| MGSDKIHHHHHHMNDVQQAINSDDIPLTDELVVSYLQDNPEFFNRNNSLMTGLRLNDEQRGTVSLVERQQQQLRQKVYGLEDEITQLMSVANHNEQLFVLYSDLYLRLLDCQSAEELLDCLHQATTELLSLSSFKLWLVSGNNTEVAHHSLSTNDCAGVMQNRLTNDEYYFGRLQESEQTLIFSKPCLGSVVLIKLTHDEQAVGFLAIGSEDAHHFDPRMDTLLLNQFKRLVAKLLHQQLSM | not soluble |
| MNLRIPWKEVYYLGYNMGNYIKISEPELLFVLRNKPQIKDRLKLDEKTIIKEGVKKYKNFWEIYYTVKDLILRGYRVRFDGFFIELYEKGIIPGTIEQDYLVYPVSGEIRMTWGELLDIYNKAIARKSKFMLAIVDSEGDVTYYEFRKLRSNK | soluble |
| GPGSMQEEAISSAATGVGHVMVTFFTDSYAKAMPEESYAVPLNVLPEGLNVLVQSVLSVNDQVFDFLYNGEYITTTLQKFLSRRGVSTEELVNVEYTPALQAKESSHLPHDDWVSSVRVPFVGHSELLLTGSYDRCIRLWDADDCVAIGAHHDECVKEVVVHPMKPRSTATNTTRDSVKKRARSSLLEDFYCVSCSKDGRAAAWVFNATASKFQLLSSVKAHTDAIESIDISPGAGKYVATASWDCTVKVFEWSQVVDGATEPSAKEPLVSFTDHTRPALSCRFSAAKGAALLYSSGLDGTLKCMDVETAVLQKQYIGDHPVQGLAVRTVGGGGGGDLIIAACTDNRARLYDTRVGESTGSVKVFSGHKQWLYAASWLWRPDEGEVNGGNFFATASEDSTVRLWDLRCGTNALLTLDTSHTDGVLDVTYSGNGEIVSCGKDNSTKSFQCFKGDSLLN | not soluble |
| MAGHSKWANTRHRKAAQDAKRGKIFTKIIRELVTAAKLGGGDPDANPRLRAAVDKALSNNMTRDTLNRAIARGVGGDDDANMETIIYEGYGPGGTAIMIECLSDNRNRTVAEVRHAFSKCGGNLGTDGSVAYLFSKKGVISFEKGDEDTIMEAALEAGAEDVVTYDDGAIDVYTAWEEMGKVRDALEAAGLKADSAEVSMIPSTKADMDAETAPKLMRLIDMLEDCDDVQEVYHNGEISDEVAATL | soluble |
| MKKWMAGLFLAAAVLLCLMVPQQIQGASSYDKVLYFPLSRYPETGSHIRDAIAEGHPDICTIDRDGADKRREESLKGIPTKPGYDRDEWPMAVCEEGGAGADVRYVTPSDNRGAGSWVGNQMSSYPDGTRVLFIVQLEHHHHHH | soluble |
| AVANATELVNKISENCFEKCLTSPYATRNDACIDQCLAKYMRSWNVISKAYISRIQNASASGEI | soluble |
| MIWIAVDRVGKKFINCSFGSRGTETGQLLWEKLEKKEIGEVMTDHWRAYAAFLPETIHTQSKAETYTVEGYNSILRHFLARLRRKTKCYTKSLEMLKYSVLLLMKYRNRELTIFHASSVKLEHHHHHH | not soluble |
| MSDTPAQTPEPSKKTPEPSGVDLARVALRAAKEQARARGDAAQQKRQARRGGLRSGARADGRDPMALGAAINRLLTERGWETPAAVGGVMGRWPQIVGEDLAKHCVPQRYDEDERVLTVQCDSTAWATQLRLLAPQLVARLNEDLGHGTVRLLKVQGPGGPARRYGPLRAPGSTGPGDTYG | not soluble |
| GSHMMKVEKEIKTNQDIDVVMTIFSDPAFTIPQIFPGIASIKCIEPEIFEAEGKFLAFSYKVKGRVYKGVDEVRIIYDSDRGNGILYIRKKDNNTLQIILEHDNKLTAFLGKPYVSSNLDRLAENIDEIIRLERIKRKI | soluble |
| GAEPKGLLRVDLPVSLGRMVVIPALPEFTRRYPQVRLEIGMSDRPVDLIREGVDCVLRAGAALDEALVARPLGSLTQITCASREYLQQHGTPLQLEDLAHHQVIEYFSASTSKRYGLEFVGEGGAPDHGLACSISVNSADGY | not soluble |
| VVQPADIDVPETPARPVLVVDFGAQYAQLIARRVREARVFSEVIPHTASIEEIRARQPVALVLSGGPASVYADGAPKLDPALLDLGVPVLGICYGFQAMAQALGGIVAHTGTREYGRTELKVLGGKLHSDLPEVQPVWMSHGDAVTAAPDGFDVVASSAGAPVAAFEAFDRRLAGVQYHPEVMHTPHGQQVLSRFLHDFAGLGAQWTPANIANALIEQVRTQIGDGHAICGLSGGVDSAVAAALVQRAIGDRLTCVFVDHGLLRAGERAQVQRDFVAATGANLVTVDAAETFLEALSGVSAPEGKRKIIGRQFIRAFEGAVRDVLDGKTAEFLVQGTLYPDVVESGGGSGTANIKSHHNVGGLPDDLKFTLVEPLRLLFKDEVRAVGRELGLPEEIVARQPFPGPGLGIRIVGEVTAKRLDTLRHADSIVREELTAAGLDNQIWQCPVVLLADVRSVGVQGDGRTYGHPIVLRPVSSEDAMTADWTRVPYEVLERISTRITNEVAEVNRVVLDITSKPPATIEWE | not soluble |
| MAHHHHHHMGQGFSRAQMEEYKELVKDRFSEEAIEFLFMKFHKAAPEGVMTPVEFKRYIDSTGVYKNYRRTHLASWFPSYAKYTHSKGGNRAVRKTSAQILDREMYLHLFRAYDRDCDGVISFREFLLYHLAVMYSTEELFVVVFNAYDDDQDGYLSLDDIRNTITAATRYVGDCDVEDQEVQRVIDEEAQRLMFFLDVRKDGRIRRDDMRLITQKHPEVLEKMKNLM | soluble |
